Consider one molecule from publication PMC6737233, “A novel epitope-presenting thermostable scaffold for the development of highly specific insulin-like growth factor-1/2 antibodies” (The Journal of Biological Chemistry, 2019).

Assay [1] concerns the target T1, IGF-1 linear sequence stretch Lys75 to Arg84 (on 15-mer array peptides) (Homo sapiens (Human).).
T1 construct: human IGF-1, stretch Lys75–Arg84 (numbers on UniProtKB P05019), mapped with 15-mer peptides off-set by 1 amino acid; The peptides on the array were 15 amino acids long; source: synthetic peptide, spotted on Intavis CelluSpots glass slides
T1 chain: KPTGYGSSSR
Briefly: peptide or protein array; Intavis CelluSpots slides with 15-mer peptides (off-set 1) of human IGF-1, and an alanine scan; 1 μg/ml antibody in TBST, ambient temperature, 2 h; HRP secondary antibody, chemiluminescence.

Assay [2] concerns the target T2, human recombinant IGF-2 (insulin-like growth factor 2) (Homo sapiens (Human)., UniProt P01344).
T2 construct: insulin-like growth factor 2, human, mature 67-amino acid peptide (7.5 kDa; 7.2-kDa recombinant analyte); loop positions 53–65 are counted on UniProtKB P01344; also called mature IGF-2; source: bought: PeproTech (100-12)
Briefly: SPR; Biacore T200, 25 °C, HBS-EP (10 mM HEPES pH 7.4, 150 mM NaCl, 1 mM EDTA, 0.05% Tween 20); mAb from clone culture supernatant captured by immobilised polyclonal rabbit anti-mouse IgG on CM5; analytes injected at 90, 30, 10, 3.3, 1.1, 0 nM, in triplicate; dissociation 5, 30 or 120 min (IGF-1 on anti–IGF-1: 120 min); 1:1 Langmuir fit. The following applies: one partner purified. Background: SPR reads the build-up and loss of mass on a sensor chip optically.

The target of assay [3] is T3, human recombinant IGF-1 (insulin-like growth factor 1) (Homo sapiens (Human)., UniProt P05019).
T3 construct: insulin-like growth factor 1, human, mature 70-amino acid polypeptide hormone (7.7 kDa; 7.6-kDa recombinant analyte); loop positions 74–90 are counted on UniProtKB P05019; Two suppliers are named (PeproTech for SPR, Roche Penzberg for ECLIA); They are kept as one molecule because both are recombinant mature human IGF-1; also called mature human IGF-1; source: bought: PeproTech (100-11) (SPR); …
T3 sequence (P05019 49-118): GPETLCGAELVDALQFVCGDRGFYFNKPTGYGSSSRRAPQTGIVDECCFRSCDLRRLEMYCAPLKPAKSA
The description is as above. The following applies: one partner purified.

The next assay has as its target T4, TtSlyD-IGF-1(74–90) (Thermus thermophilus (strain ATCC …)).
T4 construct: Thermus thermophilus SlyD, FKBP domain upstream of the insertion site (Nt-SlyD-FKBP); the printed cell begins with the MRGS tag, which replaces Met1; single glycine linker; human IGF-1 loop, positions 74–90 of UniProtKB P05019, grafted in place of the IF domain (TtSlyD residues 67–121); Thermus thermophilus SlyD, FKBP domain downstream of the insertion site (Ct-SlyD-FKBP), from Ala122; The SPR …
T4 chain: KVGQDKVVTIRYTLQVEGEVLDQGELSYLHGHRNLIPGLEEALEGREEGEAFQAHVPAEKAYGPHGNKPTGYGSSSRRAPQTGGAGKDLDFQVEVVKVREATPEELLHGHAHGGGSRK
Described as above. As to conditions: one partner purified.

Assay [4] concerns the target T3, human recombinant IGF-1 (insulin-like …). Described as above. The following applies: one partner purified. This is another data set of the same source.

The Kd is the free concentration of one partner at which half of the binding sites on the other are occupied at equilibrium, for simple one-to-one binding. As usually defined, the koff is the first-order rate constant of dissociation. As a reminder, the kon is a measure of how fast the partners come together.

T2 sequence (P01344 25-91): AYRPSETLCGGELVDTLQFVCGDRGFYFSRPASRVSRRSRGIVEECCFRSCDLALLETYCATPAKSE

B1: mAb anti–IGF-1(74–90) (antibody, V domains shown)
VH: QVQLQQSGAELVRPGSSVKISCKASGYAFSNLWMNWVKQRPGQGLEWIGQIYPGDGDTNYYGDFKGKATLTADSSSSTAYMQLSRLTSEDSAVYFCARIGYYGMDYWGQGTSVTVSS
VL: DVVLTQTPLSLPVNIGDEASISCKSTKSLLSSDGLTYLDWYLQKPGQSPQVLIYLVSNRFSGVPDRFSGSGSGTDFTLKISRVEAEDLGVYYCFQSNYLPTFGAGTKLELK
notes: Murine monoclonal antibody raised with TtSlyD-IGF-1(74–90); In the ECLIA it stood as a biotinylated or ruthenylated conjugate (lysine ε-amino groups); also called mAb IGF-1(74–90); anti–IGF-1 antibody; source: mouse hybridoma; clone culture supernatant captured on the sensor (SPR); purified from the cell culture supernatant (immunoconjugates for ECLIA)
Regarding B1, the binding result in assay [1] is given as “binds”. In assay [2], the binding result is listed as “no binding (tested: 90 nM)”. For the same molecule, the t1/2 diss in assay [3] was 11.3 h. In the assay with TtSlyD-IGF-1(74–90), this molecule yielded a Kd of 0.031 nM, a koff of 2.8e-05 s⁻¹ and a kon of 920000 M⁻¹ s⁻¹. Also, in assay [4], the Kd is 0.0055 nM, the koff is 1.7e-05 s⁻¹ and the kon is 3e+06 M⁻¹ s⁻¹.
